The record followed here is article PMC10689493 (2023).

First the molecules themselves.
B1: S2hlx-7 epitope scaffold (designed binder)
chain: MTSTFDRVATIIAETADIPRETITPESHAIDDLGIDELDFLDIAFAIDKAFGISLPLFKWELDVYFGSATTEQYFVLKNLAARIDELVAAKGA
B2: S2hlx-Ex19 epitope scaffold (designed binder)
chain: MNLDSFKEELDDYFKEKIVKEFEKLCKELISKYEVKKPTPSPEIKKICEYLKKKHEELKDKYPEEFVKEIFKKMWEVFKKELSKQLKKLGVTNDGGEKYKIVKEDLNYLVDVIKSLEGLSDLDLNWEEIWN
B3: S2P6 mAb (antibody, V domains shown)
VH: EVQLVQSGAEVKKPGASVKVSCKASGYTFTSQYMHWVRQAPGQGLEWIGIINPSGVHTSYAQKFQGRVTLTRDTSTSTLYMELSSLRSEDTAVYYCARGSPKGAFDYWGQGTLVTVSS
VL: not shown
B4: CC40.8 mAb (antibody, V domains shown)
VH: EVQLLESGGGLVQPGGSLRLSCAASGFTFSSYVMTWARQAPGKGLEWVSAISGTGYTYYADSVKGRFTVSRDNSKNTLFLQMSSLRAEDTAVYYCAITMAPVVWGQGTTVTVSS
VL: SYELTQPPSVSVSPGQTARITCSGDALPKRYAYWYQQKSGQAPILVIYEDKKRPSGIPERLSGSKSGTVATLTISGAQVEDEADYYCYSTDSSGNHAVFGGGTQLTVL
B5: DH1057.1 mAb (antibody, V domains shown)
VH: EVQLVESGTEVKKPGASVKVSCKTSGYIFTNYYIHWVRQAPGQGLEWMGIFNPNGGGTSYAQKFQGRITLTGNTSANTGYMVLRSLTSEDTAVYYCARDPRTSGDNDGFDMWGQGTKVTVSS
VL: VLTQSPATLSLSPGERATLSCRASQSLSSYNYLAWYQQKPGQAPRLLIYAASKRATGIPARFSGSGSGTDFTLTISSLEPEDFAVYFCQQRSNRPPAWTFGQGTKVEIK
B6: DH1058 mAb (antibody, V domains shown)
VH: QVQLVQSGGGVVQPGRSLRLSCAASGFNFGDFGMHWVRQAPGKGLEWVAVISYEGRNKNHADSVRGRFTISRDNSRNMLYLQMNSLRRGDTAVYYCAKENRDRNYDSWSASYSDYYYGMDVWGQGTTVTVSS
VL: DIVMTQSPSFLSASVGDRVTITCRASQGIDRYLAWYQQKPGSAPKLLIYAASTLQSGVPSRFSGSGSETDFTLTISSLQPDDFATYYCQQLSTYPTITFGQGTRLEIK

What all share (assay): SPR
On the technique in general: SPR reads the build-up and loss of mass on a sensor chip optically.

Test [1] deals with B3.
For test [2], the target named is B5.
In test [3] the target is B3. The source holds these as a separate data set.
For test [4], the target named is B5. The source holds these as a separate data set.
Test [5] deals with B3. The source holds these as a separate data set.
Test [6] deals with B5. This is another data set of the same source.
Test [7] deals with S2P6iGL.
Test [8] concerns the target CC40.8iGL.
The target in test [9] is DH1057UCA.
For test [10], the target named is B4.
For test [11], the target named is B3. This is another data set of the same source.
Test [12] has as its target B5. The source holds these as a separate data set.
Test [13] has as its target S2hlx-Ex20 epitope scaffold.
In test [14] the target is S2hlx-Ex17 epitope scaffold.
Test [15] concerns the target S2hlx-Ex15 epitope scaffold.
The target of test [16] is S2hlx-1.
Test [17] has as its target S2hlx-8.
For test [18], the target named is S2hlx-15 epitope scaffold.
The target of test [19] is S2hlx-13.
In test [20] the target is S2hlx-14.
The target in test [21] is S2hlx-4 epitope scaffold.
Test [22] has as its target FP-2 epitope scaffold.
Test [23] has as its target FP-10 epitope scaffold.

Read-outs that look alike come from different tables or passages of the source.

As for B1, the dissociation constant Kd (commonly the equilibrium constant for the complex coming apart) in [1] worked out at 0.2 nM; in [2], 0.6 nM. Further, the values for the koff in test [3] and in test [4] were 0.0025 s⁻¹ and 0.0026 s⁻¹, respectively.

In the case of B2, the Kd in test [5] amounted to 1.7 nM; in test [6], 15.5 nM; in [7], 690 nM; in test [8], 94.1 nM; in test [9] it was 3080 nM. Also, the off-rate (koff) (in general, a measure of how fast the partners let go of each other) in test [7] is 0.0018 s⁻¹; in [8], 0.028 s⁻¹; in [9], 0.0019 s⁻¹; in test [10] it was 0.02 s⁻¹; in test [11], 0.00033 s⁻¹; in test [12], 0.027 s⁻¹.

For B3, the Kd stood at 10.7 nM in test [13]; 29.6 nM in test [14]; 6 nM in [15]; 52.8 nM in test [16]; 63 nM in [17]; 0.7 nM in test [18]. In addition, the Kd worked out at 83 nM in [19], 30 nM in [20] and 47.7 nM in test [21]. Moreover, the koff in [13] stood at 0.00042 s⁻¹; in test [14] it was 0.0082 s⁻¹; in test [15] it was 0.0086 s⁻¹; in [16], 0.0027 s⁻¹; in test [17], 0.00021 s⁻¹; in test [18] it was 0.0018 s⁻¹. In addition, the off-rate (koff) in test [19] came to 0.0017 s⁻¹; in test [20], 0.0016 s⁻¹; in test [21], 0.00048 s⁻¹.

In the case of B4, the equilibrium dissociation constant (Kd) amounted to 10.6 nM in test [13], 27.1 nM in test [14] and 3.4 nM in test [15]. Also, the koff in test [13] is 0.011 s⁻¹; in test [14] it was 0.061 s⁻¹; in test [15] it was 0.0085 s⁻¹.

B5: the Kd is 48.9 nM in test [13]; 12.8 nM in [14]; 1.7 nM in test [15]; 353 nM in test [16]; 175 nM in [17]; 0.6 nM in test [18]. Also, the results for the Kd in test [19], in test [20] and in test [21] were 176 nM, 404 nM and 4480 nM, respectively. In addition, the off-rate (koff) in test [13] is 0.026 s⁻¹; in test [14] it was 0.014 s⁻¹; in test [15] it was 0.00037 s⁻¹; in [16] it was 0.0091 s⁻¹; in [17] it was 0.0015 s⁻¹; in test [18], 0.0014 s⁻¹. For the same molecule, the values for the off-rate constant (koff) in test [19], in [20] and in test [21] were 0.0032 s⁻¹, 0.018 s⁻¹ and 0.037 s⁻¹, respectively.

B6: the Kd was determined as 0.1 nM in test [22] and 0.3 nM in test [23]. For the same molecule, the koff in [22] is 0.00066 s⁻¹; in [23] it was 0.00068 s⁻¹.
